Consider two molecules from article PMC2937989 (The Journal of Biological Chemistry, 2010).

B1: talin 4-helix bundle (residues 1458–1584) (domain or fragment, mouse, UniProt P26039 1458-1584, looked up)
chain: QQGLVEPTQFARANQAIQMACQSLGEPGCTQAQVLSAATIVAKHTSALCNSCRLASARTANPTAKRQFVQSAKEVANSTANLVKTIKALDGDFTEENRAQCRAATAPLLEAVDNLSAFASNPEFSSV
B2: chicken vinculin domain 1 (Vd1; residues 1–258) (domain or fragment, UniProt P12003 1-258, looked up)
chain: MPVFHTRTIESILEPVAQQISHLVIMHEEGEVDGKAIPDLTAPVSAVQAAVSNLVRVGKETVQTTEDQILKRDMPPAFIKVENACTKLVRAAQMLQADPYSVPARDYLIDGSRGILSGTSDLLLTFDEAEVRKIIRVCKGILEYLTVAEVVETMEDLVTYTKNLGPGMTKMAKMIDERQQELTHQEHRVMLVNSMNTVKELLPVLISAMKIFVTTKNTKSQGIEEALKNRNFTVEKMSAEINEIIRVLQLTSWDEDAW

Assay [1] has as its target B2. The assay can be described thus: SEC. For orientation: Size exclusion chromatography separates by hydrodynamic size, large species first.
Assay [2] has as its target talin(1359–1659), talin 9-helix module (mouse, UniProt P26039 1359-1659). The assay can be described thus: SEC.

talin(1359–1659), talin 9-helix module, sequence (P26039 1359-1659): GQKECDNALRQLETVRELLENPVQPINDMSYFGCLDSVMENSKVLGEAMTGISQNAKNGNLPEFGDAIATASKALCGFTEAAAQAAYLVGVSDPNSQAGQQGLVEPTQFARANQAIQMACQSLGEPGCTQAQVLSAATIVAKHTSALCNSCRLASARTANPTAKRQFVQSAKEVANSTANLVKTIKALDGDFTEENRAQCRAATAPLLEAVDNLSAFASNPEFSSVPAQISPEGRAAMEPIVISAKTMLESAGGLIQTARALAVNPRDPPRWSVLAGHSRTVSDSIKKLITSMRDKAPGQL

With B1, in assay [1], the binding result was “binds”. In the case of B2, the binding result in assay [2] is on record as “binds”.
